Results published in the supplement of paper PMC9170038.

Test system: MS2 coat protein
Experiment: apparent KD of MS2 coat protein; higher = weaker reporter binding
Conditions: Eterna round: R107; input ligand: arginine 13.2 mM
Description: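 RNA-MaP round R107: designed RNA switches with theophylline, tryptophan, arginine or FMN aptamers are transcribed on-chip within common flanks. They are titrated with SNAP-549-labelled MS2 coat protein in RNA-MaP buffer (100 mM Tris pH 7.5, 80 mM KCl, 4 mM MgCl2), without ligand or with the indicated ligand. Median apparent KD per design.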

Row | Sequence | apparent KD of MS2 coat protein [µM]
1 | CGCCCAGUUACGGCCGCCACUUCGAUGGCAAAUGUCGAGCCUCCACAUGAGGAUCACCCAUGUCGAAGGACCGGGUACUGCUUGC [theeternabot_sameState_MS2_Trp_B_17] | 0.0294
2 | CAUAUAUAUAGAAGGAGCGACAUGAGGAUCACCCAUGUCUACCACGUCGAAAGACGCUCAUGUCAGGUAGGUCGCUAUAUAUAUG [Astros-Eli-mod2] | 0.0562
3 | AUUAACUGGUAAGAUACCAGAGUCGGGAUCUACAUGAGGAUCACCCAUGUUCUAAAGUCGCUCCCUUGGCAGCUUCAAUGAGUCG [theeternabot_sameState_MS2_Theo_B_27] | 0.0233
4 | UGCAUCAUAAUCAUGUAGGUGCUAGGUGAUACCAGCAUCGAAAGAUGCCCUUGGCAGCACCAACAUGAGGAUCACCCAUGUAAUA [(MT)''-(M)'-(T')-(Theo)-(Ms2)_Design1/22_1] | 0.0484
5 | UGUAUGUGAUGUGAUACCAGUCCAAUACUGGUAACAUGAGGAUCACCCAUGUAAUGAUGGGACCCUUGGCAGCACAUCGCAUACU [ThBS] | 0.175
6 | ACAUUUAACUGAAGGAGCGUGAUAAACAUGAGGAUCACCCAUGUACCAAAGAUUUUCAGUUCACAGGUAGGUCGCAGACUAAUGA [JR_ExcArginiB_Sub016] | 0.0106
7 | AUGCUUAUCAGAAGGAGCGUCAUUAACAUGAGGAUCACCCAUGUAACAUUGAAUUCGAUGAGACAGGUAGGUCGCUGAAUAGUAA [SS-ArgB27] | 0.028
8 | UUGGGUUUGUGAAGGAGCGGGAAAGUUUUAUAGUGAAUCCUAACAUGAGGAUCACCCAUGUCCCAGGUAGGUCGCGCGGGUUUGG [12.Q] | 0.24
9 | GGAGCUACGUCGGCCGCCACUAGCGGAUAUUACGUGUACAUGAGGAUCACCCAUGUAAUACGGUUUAGGACCGGGACGUAGCUCC [Lizard] | 0.0156
10 | GGACUAACCUGAAGGAGCGGCGCGCAGAAACUGCAAAUUCCUCCACACGAGGAUCACCCGUGUCAGGUAGGUCGCAGGUUAGUCG [ArgBX 28] | 0.0115

Same assay, conditions: Eterna round: R107; input ligand: none

Row | Sequence | apparent KD of MS2 coat protein [µM]
11 | AGAGUCUAGUCGGCCGCCACUCAUGUCCGAAGGACAUGAGGAUCACCCAUGUACCAAUGGUACAUGAGGACCGGGACUGGACUCA [Omei Tryp B SS C v3] | 0.0399
12 | AGAAAGAAACAAAACUCAAGGAGAACCGAAGGAGCGGCGAAAGAGCCAGGUAGGUCGCGGUCCUCAACAUGAGGAUCACCCAUGU | 0.104
13 | UGUACCUAGUCGGCCGCCACUCAAUAAUGAGAGGAUCACCCUCAUAAACGAGUCAAAGACUCGAUGAGGACCGGGACUAGGUACU [Palindromic MS2 2 #AlternativeMS2 #Palindrome #StaticStem] | 0.053
14 | CGGCCCUCACUUGAGGAACACCCAAGUGAUACCAGCCUGGAAACAGGCCCUUGGCAGCACUAGGUCAUCAAAGAUGACCAAGCCG [TheoAX 29 #OpenEnded #AlternativeMS2] | 0.0238
15 | AAAUGUGUAAAAGCUUUAACACCCUGAGAAGGAGCGCAAUAAAUUGCAGGUAGGUCGCUCAGACAUGAGGAUCACCCAUGUAACC [Atrabeor] | 0.0396
16 | AGCCCGGGAGCGGCCGCCACUGGAGGCUGAGCGCGACAUGAGGAUCACCCAUGUGUGCCCGGCGUUAGGACCGGGCUCGCGUGGU [#1 Same State - Tryptophan B Attempt #23 (HarryS)] | 0.0294
17 | GUCCGACAUGAGGAUCACCCAUGUACUGAAGGAGCGGACAAAUGUCCAGGUAGGUCGCAGCUAUAUGGUGUGGACCGAUCCGGAC [Ustius] | 0.022
18 | CAAUAUAUAUGAAGGAGCGACAUGAGGAUCACCCAUGUCUACCACGUCGAAAGACGCUCAUGUCAGGUAGGUCGCAUAUAUAUUG [Astros-Eli-mod4] | 0.102
19 | UCGCCCAGAAAGGAUUGCUGGGAUAUGGAAGGAGCGCUGAUGCCAGCAGGUAGGUCGCCAACGGACAUGAGGAUCACCCAUGUAC [Same State - Arginine A (Freestyle 6)] | 0.0198
20 | GCACAAGAUGGAAGGAGCGCUGGAAAAGGUCACAUGAGGAUCACCCAUGUUCUCCGAACCGAGCAGGUAGGUCGCUAUCUUGUGC [#09 Same State - Arginine B] | 0.0419
21 | UUCAGCUAGUCGGCCGCCACUACCUGAGGAUCACCCUGGUAGGUCCACACUGCUUCGGCAGUGAGUAGGACCGGGACUAGCUGAG | 0.0232
22 | CAAUAUAUAACGGCCGCCACUUACUCAUGAGGUAACAACAUGAGGAUCACCCAUGUUUGAGGAUCAAGGACCGGGUUAUAUAUUG [AstrosSSTry#19] | 0.028
23 | UUCAUGAGGAUUGAUACCAGCCACCAACAUGAGGAACUUACAUGAGGAUCACCCAUGUGAGGCCCUUGGCAGCAAGCAUACAUGA [Exclusion Theophylline B 3] | 0.0106
24 | AGCUCGCAUCCUCAAAGCGUCAAAGACGCACGAGGACCGGUACGGCCGCCACUCGACCUGAGGAUCACCCUGGUCUAAGCGAGCA [TrypAX 9 #SwitchBubble #AlternativeMS2 #MS2Late #CuTurnoff] | 0.0362
25 | UUAACAUGAGGAUCACCCAUGUUUGAUGAAGGAGCGACCAGAGGGUCAGGUAGGUCGCAUCACAUGAGGAUCACCCAUGUCGCCC [DOUBLE!!! :-D #13] | 0.0218
26 | CAUAUAUAUAGAAGGAGCGACAUGAGGAUCACCCAUGUCUACCACGUCGAAAGACGCUCAUGUCAGGUAGGUCGCUAUAUAUAUG [Astros-Eli-mod2] | 0.115
27 | ACAUUUAACUGAAGGAGCGUGAUAAACAUGAGGAUCACCCAUGUACCAAAGAUUUUCAGUUCACAGGUAGGUCGCAGACUAAUGA [JR_ExcArginiB_Sub016] | 0.0111
28 | AUGCUUAUCAGAAGGAGCGUCAUUAACAUGAGGAUCACCCAUGUAACAUUGAAUUCGAUGAGACAGGUAGGUCGCUGAAUAGUAA [SS-ArgB27] | 0.0451
29 | UUGGGUUUGUGAAGGAGCGGGAAAGUUUUAUAGUGAAUCCUAACAUGAGGAUCACCCAUGUCCCAGGUAGGUCGCGCGGGUUUGG [12.Q] | 0.134
30 | GGACUAACCUGAAGGAGCGGCGCGCAGAAACUGCAAAUUCCUCCACACGAGGAUCACCCGUGUCAGGUAGGUCGCAGGUUAGUCG [ArgBX 28] | 0.0121

Same assay, conditions: Eterna round: R107; input ligand: theophylline 20 uM

Row | Sequence | apparent KD of MS2 coat protein [µM]
31 | ACAAGUCCUCAUGAUACCAGCGAUGAGACAAAGUCUCAACAUGAGGAUCACCCAUGUACUCGCCCUUGGCAGCAUACGGUUUUUG [Onedxequla] | 0.373
32 | AGAGUCUAGUCGGCCGCCACUCAUGUCCGAAGGACAUGAGGAUCACCCAUGUACCAAUGGUACAUGAGGACCGGGACUGGACUCA [Omei Tryp B SS C v3] | 0.0983
33 | AGAAAGAAACAAAACUCAAGGAGAACCGAAGGAGCGGCGAAAGAGCCAGGUAGGUCGCGGUCCUCAACAUGAGGAUCACCCAUGU | 0.0835
34 | UGUACCUAGUCGGCCGCCACUCAAUAAUGAGAGGAUCACCCUCAUAAACGAGUCAAAGACUCGAUGAGGACCGGGACUAGGUACU [Palindromic MS2 2 #AlternativeMS2 #Palindrome #StaticStem] | 0.0732
35 | GGCGCUGCGUCGGCCGCCACUAGUGGGUAAUGGGUGUACAUGAGGAUCACCCAUGUAUUUUGGCCUAGGACCGGGACGUGGCGCC [Oxen] | 0.455
36 | CGGCCCUCACUUGAGGAACACCCAAGUGAUACCAGCCUGGAAACAGGCCCUUGGCAGCACUAGGUCAUCAAAGAUGACCAAGCCG [TheoAX 29 #OpenEnded #AlternativeMS2] | 0.0428
37 | AAAUGUGUAAAAGCUUUAACACCCUGAGAAGGAGCGCAAUAAAUUGCAGGUAGGUCGCUCAGACAUGAGGAUCACCCAUGUAACC [Atrabeor] | 0.0569
38 | GAUGAACUAUAUGAUACCAGACAACAUGAGGAUCACCCAUGUGAUUGUCGUCCUCUGCCUGUCCCUUGGCAGCGUAUAGUUUAUC [XTheo B #16] | 0.0874
39 | AGCCCGGGAGCGGCCGCCACUGGAGGCUGAGCGCGACAUGAGGAUCACCCAUGUGUGCCCGGCGUUAGGACCGGGCUCGCGUGGU [#1 Same State - Tryptophan B Attempt #23 (HarryS)] | 0.075
